Assay results: patent US20190101529, “TAU PROTEIN-BINDING DNA APTAMERS WITH CAPTURE/DETECTION AND THERAPEUTIC UTILITIES IN TAUOPATHY-RELATED NEURODEGENERATIVE DISORDERS” (UNIVERSITY OF FLORIDA RESEARCH FOUNDATION, INC., published 2019)
Where no end group is shown, it is not given here. [ ]: non-standard residue; d: D form. pT = C[C@@H](OP(=O)(O)O)[C@H](N)C(=O)O

Tests used:
[1] = target: Tau441 (microtubule-associated protein tau, 2N4R) (UniProt P10636-8 P10636-8:1-441); assay: BLI; PBS + 5 mM Mg2+, 30 C; details: tags: His-tag (SignalChem) for BLI, rPeptide Tau441 for aggregation assay
Procedure: (§1) The binding affinities and binding kinetics of the selected aptamers were determined on an Octet RED384 instrument (Pall Fortebio). All measurements were performed on 384-well plates that were agitated at 1000 rpm at 30° C. The his-tag peptides were immobilized at a concentration of 5 μg/mL on Ni-NTA sensors for 10 minutes, followed by rinsing the sensors in PBS for 10 min. Then the sensors were brought into fresh association buffer (PBS with 5 mM Mg2+) to establish a baseline for another 10 min. For kinetic analysis, the peptide-immobilized sensors were transferred to the wells containing aptamer dilutions (1 μM, 1.5 μM, 2 μM, 3 μM, 4 μM) for the association step (10 min), and then moved to the wells with fresh buffer for the dissociation step (10 min). A reference sensor was used without the treatment with aptamer solution but others steps remained the same. […] Association rate constants (kon), dissociation rate constants (koff), and equilibrium dissociation constants (Kd) for each aptamer binding to its target peptide were calculated using the FORTEBIO® data analysis software 10.0.

[2] = target: T1, beta casein (UniProt P02666 P02666:16-224); assay: EMSA; 200 nM aptamer, 0.05 mg/mL protein, 4 C; details: label: 5'-FAM (flow)
T1 sequence: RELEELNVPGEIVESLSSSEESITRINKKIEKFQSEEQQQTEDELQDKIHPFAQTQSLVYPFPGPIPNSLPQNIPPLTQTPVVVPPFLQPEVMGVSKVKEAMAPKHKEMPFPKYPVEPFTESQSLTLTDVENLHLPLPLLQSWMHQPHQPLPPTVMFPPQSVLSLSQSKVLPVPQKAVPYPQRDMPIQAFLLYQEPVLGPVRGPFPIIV

[3] = target: T2, alpha casein (UniProt P02662 P02662:16-214); assay: EMSA; 200 nM aptamer, 0.05 mg/mL protein, 4 C; details: label: 5'-FAM (flow)
T2 sequence: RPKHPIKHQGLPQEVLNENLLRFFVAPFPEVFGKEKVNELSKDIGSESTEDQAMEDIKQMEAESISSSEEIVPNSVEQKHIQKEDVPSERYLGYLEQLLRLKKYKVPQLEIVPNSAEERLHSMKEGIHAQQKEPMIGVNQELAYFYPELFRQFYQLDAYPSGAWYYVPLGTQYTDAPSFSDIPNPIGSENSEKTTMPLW

[4] = target: UCH-L1 (UniProt P09936 P09936:1-223); assay: EMSA; 200 nM aptamer, 0.05 mg/mL protein, 4 C; details: label: 5'-FAM (flow)
[5] = target: BSA (UniProt P02769 P02769:25-607); assay: EMSA; 200 nM aptamer, 0.05 mg/mL protein, 4 C; details: label: 5'-FAM (flow)
[6] = target: T3, Tau T231 peptide (UniProt P10636); assay: BLI; PBS + 5 mM Mg2+, 30 C; details: protein: synthetic; tags: synthetic peptide (GenScript), N-terminal acetyl, C-terminal (Ahx)2-His6
T3 chain: KVAVVRTPPKSPS
Procedure: as §1

[7] = target: T3, Tau T231 peptide; assay: flow; binding lost; 4 C; details: protein: synthetic; tags: synthetic peptide (GenScript), N-terminal acetyl, C-terminal (Ahx)2-His6
Procedure: (§2) BD ACCURI™ C6 flow cytometry (BD Immunocytometry Systems) was used to monitor the enrichment of aptamer candidates during the selection process and to evaluate the binding specificity of the selected aptamer candidates. For each sample, 20 μL of peptide-beads or bare beads (˜1.4×105 beads) was washed against 500 μL of PBS three times. After removing the supernatant, beads were suspended in 80 μL of buffer containing either DNA pool or aptamer candidate to be tested at 250 nM for 30 min, but the DNA concentration used was 100 nM instead of 250 nM when examining the saturation of fluorescent signal with the selection pools. Incubations were carried out at 4° C. unless stated otherwise. Afterwards, beads were washed against 500 μL of PBS with additional 5 mM Mg2+ twice and then were suspended in 80 μL of buffer for flow cytometric analysis.

[8] = target: T3, Tau T231 peptide; assay: flow; binding lost completely; 4 C; details: protein: synthetic; tags: synthetic peptide (GenScript), N-terminal acetyl, C-terminal (Ahx)2-His6
Procedure: as §2

[9] = target: T4, Tau T231P phosphopeptide (UniProt P10636); assay: flow; binding lost completely; 4 C; details: protein: synthetic
T4 chain: KVAVVR[pT]PPKSPS
Procedure: as §2

[10] = target: T5, Tau S202 peptide; assay: flow; binding lost completely; 4 C; details: protein: synthetic; tags: synthetic peptide (GenScript), N-terminal acetyl, C-terminal (Ahx)2-His6
T5 chain: GYSSPGSPGTPGSR
Procedure: as §2

[11] = target: T3, Tau T231 peptide; assay: flow; no significant background binding; PBS + 5 mM MgCl2, 4 C; details: protein: synthetic; tags: synthetic (GenScript), N-terminal acetyl, C-terminal Ahx-Ahx-His6; label: fluorophore
Procedure: as §2, with “For” for “BD ACCURI™ C6 flow cytometry (BD Immunocytometry Systems) was used to monitor the enrichment of aptamer candidates during the selection process and to evaluate the binding specificity of the selected aptamer candidates. For”
The supernatant collected after the fourth negative incubation then was carried to the 8th round of positive incubation, in which the concentration of the peptide solutions used to modify Ni-NTA beads was doubled to 800 μg/mL. Moving forward, the following selection rounds were conducted with sandwiched negative incubations to eliminate the possibility of enriching any oligonucleotides recognizing the surface of the beads and with positive beads prepared with more concentrated peptide solutions (800 μg/mL) to raise the recovery rate of the desired candidates. The SELEX progress was then evaluated again with amplicons obtained in Round #10 and Round #11. […] Four oligonucleotides were used as reference sequences.

Chain of BSA (P02769 25-607, one chain of several): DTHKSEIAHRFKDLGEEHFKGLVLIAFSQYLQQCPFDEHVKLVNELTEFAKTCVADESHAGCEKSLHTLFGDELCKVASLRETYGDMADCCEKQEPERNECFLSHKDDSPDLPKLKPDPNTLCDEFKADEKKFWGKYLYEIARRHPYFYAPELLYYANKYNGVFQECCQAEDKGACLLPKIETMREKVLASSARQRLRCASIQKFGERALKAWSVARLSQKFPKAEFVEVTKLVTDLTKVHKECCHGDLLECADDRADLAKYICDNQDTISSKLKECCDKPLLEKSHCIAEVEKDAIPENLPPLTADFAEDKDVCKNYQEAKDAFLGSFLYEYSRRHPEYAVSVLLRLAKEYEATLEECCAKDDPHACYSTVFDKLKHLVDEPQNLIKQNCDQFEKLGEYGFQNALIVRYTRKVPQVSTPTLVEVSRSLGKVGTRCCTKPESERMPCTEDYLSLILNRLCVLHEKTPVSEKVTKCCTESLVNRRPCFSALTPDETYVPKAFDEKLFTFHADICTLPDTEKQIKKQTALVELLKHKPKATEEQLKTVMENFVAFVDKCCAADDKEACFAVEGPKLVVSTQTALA
Chain of UCH-L1 (P09936 whole entry, one chain of several): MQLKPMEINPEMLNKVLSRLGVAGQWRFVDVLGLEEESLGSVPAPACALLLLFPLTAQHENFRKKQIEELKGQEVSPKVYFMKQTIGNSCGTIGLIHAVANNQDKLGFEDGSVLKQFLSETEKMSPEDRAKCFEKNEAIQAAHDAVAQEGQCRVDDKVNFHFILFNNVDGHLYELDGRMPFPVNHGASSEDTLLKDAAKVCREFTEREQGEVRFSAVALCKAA
Chain of Tau441 (microtubule-associated protein tau, 2N4R) (P10636 other isoform, or with tags, fused parts or gaps): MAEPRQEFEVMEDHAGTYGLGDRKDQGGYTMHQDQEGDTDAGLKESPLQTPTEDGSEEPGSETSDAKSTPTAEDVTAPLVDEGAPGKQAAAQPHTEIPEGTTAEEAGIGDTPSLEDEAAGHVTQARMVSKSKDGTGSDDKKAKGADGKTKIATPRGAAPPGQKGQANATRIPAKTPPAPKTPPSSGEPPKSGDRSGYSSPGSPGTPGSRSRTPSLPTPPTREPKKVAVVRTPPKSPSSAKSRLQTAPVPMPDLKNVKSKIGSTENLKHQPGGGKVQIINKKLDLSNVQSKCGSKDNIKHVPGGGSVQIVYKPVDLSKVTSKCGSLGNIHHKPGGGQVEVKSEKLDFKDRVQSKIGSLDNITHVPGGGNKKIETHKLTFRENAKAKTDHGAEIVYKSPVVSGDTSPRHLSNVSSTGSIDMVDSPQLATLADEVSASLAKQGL

B1: IT1 (ssDNA)
DNA: CAGCACCGTCAACTGAATTGCTTGGTCCTCCCGGGGTTCTGGAAAAGCGTGATGCGATGGAGATGT
In the case of B1, the Kd ([1]; label: 5'-FAM (flow)) is reported as 9 nM.

B2: IT4 (ssDNA)
DNA: CAGCACCGTCAACTGAATGGGTTGGCCGGGCAGCGGGGGGTAGGCTTGGTGATGCGATGGAGATGT
In the case of B2, the Kd ([1]; label: 5'-FAM (flow)) is reported as 68 nM, the binding result [2] is reported as “no binding” and the binding result [3] is reported as “no binding”. B2: no binding [4]; no binding [5].

B3: IT5 (ssDNA)
DNA: CAGCACCGTCAACTGAATGGCGGGGGGTCAGGTCGGGGTAAGGTGAGCGTGATGCGATGGAGATGT
B3 was tested, and the Kd ([1]; label: 5'-FAM (flow)) was 7.6 nM, the binding result [2] was “no binding” and the binding result [3] was “no binding”. B3: no binding [4]; no binding [5].

B4: IT9 (ssDNA)
DNA: CAGCACCGTCAACTGAATTGCGGGGGGTCAGGTCGGGGTAAGGTGAGCGTGATGCGATGGAGATGT
B4 was tested, and the Kd ([1]; label: 5'-FAM (flow)) was 22.8 nM, the binding result [2] was “no binding” and the binding result [3] was “no binding”. B4: no binding [4]; no binding [5].

For CTGAATAAGGACTGCTTAGGATTGCGATGATTCAG (ssDNA) [IT2a], the Kd ([1]; hairpin) was 19.5 nM.

B5: IT3 (ssDNA)
DNA: CAGCACCGTCAACTGAATGGGGAGAGTGGTGGGGCGGGGGCCGGATCCGTGATGCGATGGAGATGT
With B5 the Kd ([1]; label: 5'-FAM (flow)) was 17 nM, the binding result [2] was “no binding” and the binding result [3] was “no binding”. B5: no binding [4]; no binding [5].

With GCTTGGTCCTCCCGGGGTTCTGGAAAAGC (ssDNA) [IT1c] the Kd [6] was 46 nM and the Kd [1] was 13 nM.

B6: IT6 (ssDNA)
DNA: CAGCACCGTCAACTGAATGTTGTCGTCAGAGGTTATAACCTGAACTCGGTGATGCGATGGAGATGT
B6 showed a Kd ([1]; label: 5'-FAM (flow), branched hairpin (predicted)) of 26.8 nM.

CACCGTCAACTGAATGTTGTCGTCAGAGGTTATAACCTGAACTCGGTG (ssDNA) [IT6a] showed a Kd [1] of 28.2 nM.

TTGGTCCTCCCGGGGTTCTGGAAAA (ssDNA) [IT1d]: no binding [7].

AAGGACTGCTTAGGATTGC (ssDNA) [IT2b]: no binding [8]; no binding [9]; no binding [10].

B7: IT2 (ssDNA)
DNA: CAGCACCGTCAACTGAATAAGGACTGCTTAGGATTGCGATGATTCAGGGTGATGCGATGGAGATGT
For B7, the Kd ([1]; label: 5'-FAM (flow)) was 5.5 nM.

GCGGAGCGTGGCAGG (ssDNA) [Ref1]: no binding [11].

AACGAGAAGCGCGATCACAT (ssDNA) [Ref2]: no binding [11].

CTTCTGCCCGCCTCCTTCC (ssDNA) [Ref3]: no binding [11].
